Data as given in US20220289841A1 (CHILDREN S HOSPITAL OF PHILADELPHIA, published 2022).

Biological target: T1, full-length CD22 (UniProt P20273 20-847, limits assumed)
T1 construct: Re-expressed in OCI-Ly10 cells whose endogenous CD22 was deleted by CRISPR; also called CD22 full length (FL); CD22-full length
T1 sequence (looked up): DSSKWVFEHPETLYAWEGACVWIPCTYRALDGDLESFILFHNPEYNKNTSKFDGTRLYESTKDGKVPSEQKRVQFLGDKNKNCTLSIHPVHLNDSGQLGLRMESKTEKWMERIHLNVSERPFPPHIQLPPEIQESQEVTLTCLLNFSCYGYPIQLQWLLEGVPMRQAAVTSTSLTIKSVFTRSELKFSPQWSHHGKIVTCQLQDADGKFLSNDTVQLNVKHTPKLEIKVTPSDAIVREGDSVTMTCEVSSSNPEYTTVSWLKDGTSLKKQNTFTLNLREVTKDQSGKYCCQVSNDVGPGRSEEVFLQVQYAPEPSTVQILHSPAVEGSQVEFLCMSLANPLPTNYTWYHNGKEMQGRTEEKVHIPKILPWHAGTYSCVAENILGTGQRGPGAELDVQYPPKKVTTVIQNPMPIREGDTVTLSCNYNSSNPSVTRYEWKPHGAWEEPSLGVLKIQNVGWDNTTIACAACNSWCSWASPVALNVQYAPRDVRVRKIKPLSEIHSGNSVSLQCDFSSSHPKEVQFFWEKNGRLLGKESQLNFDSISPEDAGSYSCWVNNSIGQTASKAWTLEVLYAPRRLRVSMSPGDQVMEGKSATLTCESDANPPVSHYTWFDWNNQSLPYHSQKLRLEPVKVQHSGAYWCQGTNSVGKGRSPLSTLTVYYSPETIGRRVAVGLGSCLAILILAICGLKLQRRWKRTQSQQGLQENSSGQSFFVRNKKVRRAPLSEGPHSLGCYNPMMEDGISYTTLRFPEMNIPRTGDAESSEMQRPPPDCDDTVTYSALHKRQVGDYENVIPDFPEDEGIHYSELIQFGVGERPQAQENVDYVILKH
Assay: OCI-Ly10 cells with endogenous CD22 deleted by CRISPR, reconstituted with full-length CD22; Western blot (FIG. 5B)
Excerpt: One top event was the increased skipping of exon 5-6 (Δex5-6) in CD22 in B-ALL. The inventors validated the RNA expression of this event in 18 out of 18 primary B-ALL samples with RT-PCR. And using Nanopore-based long read RNA sequencing, they confirmed the Δex5-6 event exists within a larger translatable transcript in B-ALL cell lines and B-ALL patient-derived xenografts (PDX). BALB/C mice were then immunized against a peptide containing the junction site of exon 4 and 7 to generate hybridomas and obtain a monoclonal antibody (mAb) against CD22 Δex5-6. To validate the specificity of the identified mAb, the inventors used CRISPR to delete endogenous CD22 in OCI-Ly10 cells and reconstituted the cells with either CD22 Δex5-6 or full length CD22. […] The inventors also validated that this mAb specifically binds to endogenously expressed CD22 Δex5-6 in multiple B-ALL cell lines and B-ALL patient-derived xenografts (PDX) by immunoprecipitation and Western blot analysis. In next steps, the inventors plan to develop antibody-drug conjugates and chimeric antigen receptors from our mAb for further therapeutic testing.

B1: Clone 11F11 monoclonal antibody against CD22 Δex5-6 (antibody, V domains shown)
VH: RVQLQQPGADLVRPGASVKLSCKASGYTFTSYWMSWVKQRPGQGLEWIGMIDPSDSEAHYNQMFRDKATLTVDNSSSTAYMVLSSLTSEDSAVYYCSNDFDYWGQGTTLTVSS
VL: not shown
notes: Mouse hybridoma antibody, from BALB/C mice immunized with a peptide containing the exon 4/exon 7 junction; No isotype is stated for the clone; also called the mAb; CD22 Δex5-6 antibody
B1: no binding.
